Assay [1] has as its target T1, mouse transferrin receptor (mTfR) fused to EGFP, on CHO cells (mouse, UniProt Q62351 1-763).
T1 construct: whole, on cells; also called mouse TfR; CHO-mTfR-EGFP; not shown: EGFP
Put plainly: flow cytometry, CHO cells. As to the method:
The binding properties of VHHs with affinity for the TfR from different species (i.e., human (h), mouse (m) and rhesus monkey (rh)) were tested using flow cytometry, and apparent affinities (Kd app) were determined. All experiments were performed in 96 well plates using 2×10⁵ cells/well, at 4° C. with shaking. CHO cell lines expressing the hTfR, mTfR or rhTfR fused to EGFP were saturated with PBS/BSA 2% solution during 30 min to avoid nonspecific binding, followed by incubation with purified VHHs at increasing concentrations for 1 hr. After one wash in PBS/BSA 2%, cells were incubated for 1 hr with an anti-6His tag antibody (mouse), washed twice with PBS/BSA 2%, and incubated for 1 hr with an Alexa647-conjugated anti-mouse secondary antibody. After two last washes in PBS/BSA 2%, cells were fixed by incubation for 15 min with PBS/PFA 2%, washed once with PBS and finally resuspended in PBS. Fluorescence levels were assessed using an Attune NxT flow cytometer (Thermo Fisher Scientific). Experimental data were fitted with GraphPad Prism® software using a nonlinear fit to determine the apparent Kd constants. […] Table 5 hereafter summarizes apparent Kd obtained for the tested VHHs.

The target of assay [2] is T2, human TfR ectodomain fused to a mouse IgG1 Fc fragment (human, UniProt P02786 89-760).
T2 construct: extracellular domain; ectodomain fused to the N-terminal end of the Fc, made in-house; not shown: mouse IgG1 Fc fragment
In words: SPR, kinetic. In short, it runs like this: (§1)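 TfR–mouse Fc fusions, produced in-house, captured on HC 1500M or CM5 chips either directly or via immobilized anti-mouse IgG. VHHs injected in single-cycle or multiple-cycle kinetic mode on Biacore T200.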

Assay [3] has as its target T1, mouse transferrin receptor (mTfR) fused …. Put plainly: apparent Kd, flow cytometry, CHO cells. The essentials: (§2)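 CHO cells expressing TfR-EGFP fusions, blocked in PBS/BSA 2%, then incubated with increasing VHH concentrations for 1 hr at 4° C. Bound VHH detected via anti-6His antibody and Alexa647 secondary, cells PFA-fixed, read by flow cytometry. Apparent Kd from nonlinear fit.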

In assay [4] the target is T3, rhesus monkey transferrin receptor (rhTfR) fused to EGFP, on CHO cells (rhesus monkey).
T3 construct: whole, on cells; also called rhesus monkey TfR
Put plainly: apparent Kd, flow cytometry, CHO cells. In short, it runs like this:
as §2

Assay [5] deals with T4, human transferrin receptor (hTfR) fused to EGFP, on CHO cells (human, UniProt P02786 1-760).
T4 construct: whole, on cells; also called human TfR; CHO-hTfR-EGFP; not shown: EGFP from pEGFP-C1 vector, fused to the N-terminal (intracellular) end of hTfR
Put plainly: apparent Kd, flow cytometry, CHO cells. In short, it runs like this:
as §2

The target in assay [6] is T5, rhesus monkey TfR ectodomain fused to a mouse IgG1 Fc fragment (rhesus monkey, UniProt I0FKY7 89-760).
T5 construct: extracellular domain; not shown: mouse IgG1 Fc fragment
Put plainly: SPR, kinetic. The essentials:
as §1

For assay [7], the target named is T2, human TfR ectodomain fused to a mouse …. In words: SPR, at equilibrium. As for the experimental part: (§3) Binding properties of some VHHs were also evaluated using Surface Plasmon Resonance (SPR) experiments. The human, mouse and rhesus monkey TfR (having respectively GeneBank number NM_003234.2, NM_011638, NC_041755.1) ectodomains were fused to the N-terminal end of a mouse IgG1 Fc fragment and the recombinant proteins were produced and purified in-house. Interaction of VHHs with the receptors was tested using a Biacore T200 (GE Healthcare). Receptors were immobilized on an HC 1500M or a CM5 sensor chip (Xantec) either directly or on an anti-mouse IgG previously immobilized. VHHs were injected over flowcell by using the single-cycle kinetic or the multiple-cycle kinetic methods.

Assay [8] addresses T5, rhesus monkey TfR ectodomain fused to a …. In words: SPR, at equilibrium. As to the method: as §3

Experimental findings from patent US20230414780A1 (VECT HORUS, published 2023) are described below.

T4 sequence (P02786 whole entry, the tested form may be a part): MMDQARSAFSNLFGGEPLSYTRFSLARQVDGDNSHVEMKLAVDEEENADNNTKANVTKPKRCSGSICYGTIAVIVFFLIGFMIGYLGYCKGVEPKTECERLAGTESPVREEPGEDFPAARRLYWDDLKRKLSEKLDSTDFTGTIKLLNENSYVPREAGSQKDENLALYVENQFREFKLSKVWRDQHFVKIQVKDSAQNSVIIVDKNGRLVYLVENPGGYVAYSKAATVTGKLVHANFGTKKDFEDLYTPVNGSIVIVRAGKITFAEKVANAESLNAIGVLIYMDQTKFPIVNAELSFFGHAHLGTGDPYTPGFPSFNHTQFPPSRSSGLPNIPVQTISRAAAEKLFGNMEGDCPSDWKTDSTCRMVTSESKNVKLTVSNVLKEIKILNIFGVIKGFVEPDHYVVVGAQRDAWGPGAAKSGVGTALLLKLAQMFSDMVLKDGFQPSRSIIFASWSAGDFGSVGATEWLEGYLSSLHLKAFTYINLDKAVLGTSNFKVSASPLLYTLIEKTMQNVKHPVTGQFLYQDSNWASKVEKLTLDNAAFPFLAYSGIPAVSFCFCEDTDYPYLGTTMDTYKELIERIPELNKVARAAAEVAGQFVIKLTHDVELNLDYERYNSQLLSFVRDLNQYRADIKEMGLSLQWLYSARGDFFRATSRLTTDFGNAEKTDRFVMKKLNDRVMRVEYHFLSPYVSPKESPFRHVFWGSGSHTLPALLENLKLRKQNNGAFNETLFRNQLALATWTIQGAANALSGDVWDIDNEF
T1 sequence (Q62351 whole entry, the tested form may be a part): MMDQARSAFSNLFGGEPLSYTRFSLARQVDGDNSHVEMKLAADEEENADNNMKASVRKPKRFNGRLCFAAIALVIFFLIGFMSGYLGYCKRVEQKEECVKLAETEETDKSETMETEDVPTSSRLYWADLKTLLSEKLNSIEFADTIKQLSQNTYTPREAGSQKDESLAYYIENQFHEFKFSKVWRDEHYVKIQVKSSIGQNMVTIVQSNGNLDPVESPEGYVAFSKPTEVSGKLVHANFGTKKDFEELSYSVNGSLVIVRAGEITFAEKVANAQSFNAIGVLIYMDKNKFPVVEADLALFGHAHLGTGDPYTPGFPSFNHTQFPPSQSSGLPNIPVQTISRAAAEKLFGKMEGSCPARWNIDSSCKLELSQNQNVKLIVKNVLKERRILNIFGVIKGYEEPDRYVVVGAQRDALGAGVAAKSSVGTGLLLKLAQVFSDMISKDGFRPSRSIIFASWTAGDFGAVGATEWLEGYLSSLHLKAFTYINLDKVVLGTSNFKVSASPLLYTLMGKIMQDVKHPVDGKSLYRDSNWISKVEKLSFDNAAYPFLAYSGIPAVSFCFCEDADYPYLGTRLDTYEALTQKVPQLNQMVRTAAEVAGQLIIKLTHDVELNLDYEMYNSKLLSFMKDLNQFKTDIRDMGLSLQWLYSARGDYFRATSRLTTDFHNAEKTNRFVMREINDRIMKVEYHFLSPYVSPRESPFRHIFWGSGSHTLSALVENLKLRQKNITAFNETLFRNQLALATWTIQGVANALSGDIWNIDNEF
T2 sequence (P02786 89-760): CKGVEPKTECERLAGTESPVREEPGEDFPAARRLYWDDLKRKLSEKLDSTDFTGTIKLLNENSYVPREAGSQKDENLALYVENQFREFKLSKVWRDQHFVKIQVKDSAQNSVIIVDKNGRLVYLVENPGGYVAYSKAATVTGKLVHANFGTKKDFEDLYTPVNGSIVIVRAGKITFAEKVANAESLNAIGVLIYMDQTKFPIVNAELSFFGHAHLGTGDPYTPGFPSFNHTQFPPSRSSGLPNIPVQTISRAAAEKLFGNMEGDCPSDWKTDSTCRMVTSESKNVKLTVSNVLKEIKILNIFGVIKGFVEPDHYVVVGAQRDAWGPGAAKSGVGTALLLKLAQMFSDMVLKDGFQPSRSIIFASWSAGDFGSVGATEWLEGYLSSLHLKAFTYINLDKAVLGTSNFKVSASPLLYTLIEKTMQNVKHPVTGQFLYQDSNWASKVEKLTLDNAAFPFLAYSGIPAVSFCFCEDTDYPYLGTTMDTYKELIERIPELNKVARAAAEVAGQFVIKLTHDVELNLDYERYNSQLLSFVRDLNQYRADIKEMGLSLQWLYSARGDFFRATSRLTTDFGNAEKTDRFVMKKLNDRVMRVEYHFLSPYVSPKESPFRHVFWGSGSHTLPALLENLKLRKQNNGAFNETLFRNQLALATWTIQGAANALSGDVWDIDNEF

B1: C5^neg (control) (VHH)
VHH: EVQLVESGGGVVQPGGSLKLSCVASGTDFSINFIRWYRQAPGKQREFVAGFTATGNTNYADSMKGRFTISRDNTKNAVYLQIDSLKPEDTAVYYCAMADKWGQGTQVTVSS
notes: negative control of C5 with 2 alanines in CDR3
Take B1: in assay [1], the binding result was “no binding”.

B2: H7 (VHH)
VHH: EVQLVESGGGLVQAGGSLRLSCTASGRPISDYPMGWFRRAPGKDRELVASISRTGDGTYYANSMKERFTISRDNAQNTVSLQISSLKPEDTAVYYCGAGINPTRYWGQGTQVTVSS
Regarding B2, in assay [2], the Kd stood at 1.3 nM, the koff worked out at 0.00147 s⁻¹ and the kon stood at 1.13e+06 M⁻¹ s⁻¹. Also, the binding result in assay [1] is recorded as “no binding”.

B3: B8^V38 (VHH)
VHH: EVQLVESGGGVVQPGGSLRLSCAASGEIRSINFMRWYRQAPGKQREWVAGFTRTGSTNYPDSAKGRFTISRDNAKNTVYLQIDSLKPEDTAVYYCYMLDTWGQGTQVTVSS
As for B3, the Kd in assay [3] is 1780 nM; in assay [4] it was 123 nM; in assay [5] it was 23 nM; in assay [2] it was 32.2 nM; in assay [6], 46.3 nM; in assay [7] it was 35.8 nM. The molecule also came in with a Kd in assay [8] of 55.4 nM. The values for the koff in assay [2] and in assay [6] were 0.0192 s⁻¹ and 0.0255 s⁻¹, respectively. The kon in assay [2] is 596000 M⁻¹ s⁻¹; in assay [6], 549000 M⁻¹ s⁻¹.

B4: B8^V24 (VHH)
VHH: EVQLVESGGGVVQPGGSLRLSCAASGEIFSINFMEWYRQAPGKQREWVAGFTRDGSTNYPDSAKGRFTISRDNAKNTVYLQIDSLKPEDTAVYYCYMLDTWGQGTQVTVSS
As to B4, the Kd in assay [5] turned out to be 1010 nM. Moreover, in assay [1], the binding result is reported as “no binding”.

B5: B8^V40 (VHH)
VHH: EVQLVESGGGVVQPGGSLRLSCAASGEIKSINFMRWYRQAPGKQREWVSGFTRDGSTNYPDSAKGRFTISRDNAKNTVYLQIDSLKPEDTAVYYCYMLDTWGQGTQVTVSS
For B5, the Kd in assay [3] is 1580 nM; in assay [4], 69 nM; in assay [5], 42 nM; in assay [2], 42.1 nM; in assay [6] it was 34.8 nM; in assay [7], 42.5 nM. This molecule also gave a Kd in assay [8] of 39.8 nM. Further, the koff in assay [2] worked out at 0.0283 s⁻¹; in assay [6], 0.02 s⁻¹. In addition, the kon was determined as 672000 M⁻¹ s⁻¹ in assay [2] and 575000 M⁻¹ s⁻¹ in assay [6].

B6: B8^V39 (VHH)
VHH: EVQLVESGGGVVQPGGSLRLSCAASGEIFKINFMRWYRQAPGKQREWVAGFTRDGSTNYPDSAKGRFTISRDNAKNTVYLQIDSLKPEDTAVYYCYMLDTWGQGTQVTVSS
Consider B6, for which the Kd in assay [3] came to 1290 nM; in assay [4], 200 nM; in assay [5] it was 16 nM; in assay [2] it was 39.1 nM; in assay [6], 90.5 nM; in assay [7] it was 40.3 nM. The Kd in assay [8] turned out to be 93.3 nM. Also, the figures for the koff in assay [2] and in assay [6] were 0.0175 s⁻¹ and 0.0327 s⁻¹, respectively. Besides, the kon in assay [2] came to 448000 M⁻¹ s⁻¹; in assay [6] it was 362000 M⁻¹ s⁻¹.

B7: B6^V1 (VHH)
VHH: EVQLVESGGGLVQPGGSLRLSCTASGGPIEQYPMGWFRRAPGKERNLVASISRSGDGTYYAISSVKGRFTISRDNAENTVFLQMNSLKPDDTAVYYCGAGINPTKIWGQGTQVTVSS
For the molecule B7, in assay [5], the Kd was 2.3 nM. Moreover, the binding result in assay [1] is “no binding”.

B8: B6^V2 (VHH)
VHH: EVQLVESGGGLVQPGGSLRLSCTASGGPIEQYPMGWFRRAPGKERELVASFSRSGDGTYYAISSVKGRFTISRDNAENTVFLQMNSLKPDDTAVYYCGAGINPTKIWGQGTQVTVSS
As to B8, the Kd in assay [5] was 643 nM. Moreover, in assay [1], the binding result was “no binding”.
